The subject of data set [1] is S. pombe Translin (Schizosaccharomyces pombe). As to the kind of experiment: EMSA. A general note: A gel shift assay detects complexes by their altered migration in electrophoresis.
In data set [2] the target is recombinant S.pombe Translin (S. pombe). As to the kind of experiment: glycerol gradient centrifugation.
A further data set has as its target human Translin (Homo sapiens, UniProt Q15631 1-228). Kind of data set: EMSA.

human Translin, sequence (Q15631 whole entry): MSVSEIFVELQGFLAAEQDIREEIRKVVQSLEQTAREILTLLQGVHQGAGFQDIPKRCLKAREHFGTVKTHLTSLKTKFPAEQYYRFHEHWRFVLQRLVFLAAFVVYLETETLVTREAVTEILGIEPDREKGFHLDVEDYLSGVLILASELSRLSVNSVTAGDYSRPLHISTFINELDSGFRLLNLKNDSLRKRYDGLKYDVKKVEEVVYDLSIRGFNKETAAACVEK

As to “GTGTGTGTGTGTGTGTGTGTGTGTGTGTGT [d(GT)15]”, the Kd (commonly the constant that tells how readily two partners part at equilibrium) in data set [1] is 0.018 µM.

In the case of GUGUGUGUGUGUGUGUGUGUGUGUGUGUGU [(GU)15], in data set [1], the Kd worked out at 0.003 µM.

With “recombinant S.pombe Translin (natural protein)”, in data set [2], the stoichiometry N (as a rule, the number of molecules, sites or subunits per partner or assembly) was found to be 8.

For the molecule GTGTGTGTGTGTGTGTGTGTGTGTGTGTGT (ssDNA) [d(GT)15], the binding signal with human Translin was ~2 Kd relative to (GU)15.
